B1: AtPORB (Arabidopsis thaliana) (protein)
chain: QTAATSSPTVTKSVDGKKTLRKGNVVVTGASSGLGLATAKALAETGKWNVIMACRDFLKAERAAKSVGMPKDSYTVMHLDLASLDSVRQFVDNFRRTETPLDVLVCNAAVYFPTAKEPTYSAEGFELSVATNHLGHFLLARLLLDDLKKSDYPSKRLIIVGSITGNTNTLAGNVPPKANLGDLRGLAGGLNGLNSSAMIDGGDFDGAKAYKDSKVCNMLTMQEFHRRFHEETGVTFASLYPGCIASTGLFREHIPLFRALFPPFQKYITKGYVSETESGKRLAQVVSDPSLTKSGVYWSWNNASASFENQLSEEASDVEKARKVWEISEKLVGLA
B2: AtPORC (Arabidopsis thaliana) (protein)
chain: QTVTATPPANEASPEQKKTERKGTAVITGASSGLGLATAKALADTGKWHVIMACRNFLKAEKAARSVGMSKEDYTVMHLDLASLESVKQFVENFRRTEQPLDVLVCNAAVYQPTAKEPSFTAEGFEISVGTNHLGHFLLSRLLLDDLKKSDYPSKRMIIVGSITGNTNTLAGNVPPKANLGDLRGLASGLNGQNSSMIDGGEFDGAKAYKDSKVCNMLTMQELHRRYHEETGVTFASLYPGCIATTGLFREHIPLFRLLFPPFQKYITKGYVSEEEAGKRLAQVVSDPSLGKSGVYWSWNNNSSSFENQLSKEASDAEKAKKLWEVSEKLVGLA
B3: SynPOR (Synechocystis sp. PCC 6803 substr. Kazusa) (protein)
chain: MEQPMKPTVIITGASSGVGLYGAKALIDKGWHVIMACRNLDKTQKVADELGFPKDSYTIIKLDLGYLDSVRRFVAQFRELGRPLKALVCNAAVYFPLLDEPLWSADDYELSVATNHLGHFLLCNLLLEDLKACPDADKRLIILGTVTANSKELGGKIPIPAPPDLGNFEGFEAGFKKPIAMINNKKFKSGKAYKDSKLCNMLTTRELHRRFHQETGIVFNSLYPGCVADTPLFRNHYSLFRTIFPWFQKNVTKGYVSQELAGERVAMVVADDKFKDSGVHWSWGNRQQAGREAFVQELSEQGSDAQKAQRMWDLSEKLVGLV
B4: TaPOR1 (Triticum aestivum) (protein)
chain: GVVVITGASSGLGLAAAKALAETGKWHVVMACRDFLKASKAAKAAGMADGSYTVMHLDLASLDSVRQFVDAFRRAEMPLDVLVCNAAIYRPTARTPTFTADGHEMSVGVNHLGHFLLARLLMEDLQKSDYPSRRMVIVGSITGNSNTLAGNVPPKASLGDLRGLAGGLSGASGSAMIDGDESFDGAKAYKDSKVCNMLTMQEFHRRYHEETGITFSSLYPGCIATTGLFREHIPLFRTLFPPFQKFVTKGFVSEAESGKRLAQVVAEPSLTKSGVYWSWNKDSASFENQLSQEASDPEKARKVWELSEKLVGLA
B5: AtPORA (Arabidopsis thaliana) (protein)
chain: QAIATSTPSVTKSSLDRKKTLRKGNVVVTGASSGLGLATAKALAETGKWHVIMACRDFLKAERAAQSAGMPKDSYTVMHLDLASLDSVRQFVDNFRRAEMPLDVLVCNAAVYQPTANQPTFTAEGFELSVGINHLGHFLLSRLLIDDLKNSDYPSKRLIIVGSITGNTNTLAGNVPPKANLGDLRGLAGGLNGLNSSAMIDGGDFVGAKAYKDSKVCNMLTMQEFHRRFHEDTGITFASLYPGCIATTGLFREHIPLFRTLFPPFQKYITKGYVSESEAGKRLAQVVADPSLTKSGVYWSWNKTSASFENQLSQEASDVEKARRVWEVSEKLVGLA
B6: AtPORB (Arabidopsis thaliana; S312E) (protein)
chain: QTAATSSPTVTKSVDGKKTLRKGNVVVTGASSGLGLATAKALAETGKWNVIMACRDFLKAERAAKSVGMPKDSYTVMHLDLASLDSVRQFVDNFRRTETPLDVLVCNAAVYFPTAKEPTYSAEGFELSVATNHLGHFLLARLLLDDLKKSDYPSKRLIIVGSITGNTNTLAGNVPPKANLGDLRGLAGGLNGLNSSAMIDGGDFDGAKAYKDSKVCNMLTMQEFHRRFHEETGVTFASLYPGCIAETGLFREHIPLFRALFPPFQKYITKGYVSETESGKRLAQVVSDPSLTKSGVYWSWNNASASFENQLSEEASDVEKARKVWEISEKLVGLA

substrate: NC(=O)C1=CN([C@@H]2O[C@H](COP(=O)(O)OP(=O)(O)OC[C@H]3O[C@@H](n4cnc5c(N)ncnc54)[C@H](OP(=O)(O)O)[C@@H]3O)[C@@H](O)[C@H]2O)C=CC1; experiment: purified protein, by the assay type; conditions: not given

Point of comparison: B4, Km 39.67 µM. Against it:
- B1 — 31-fold lower, 1.27 µM
- B2 — 54-fold lower, 0.73 µM
- B3 — 3.1-fold lower, 12.85 µM
- B5 — 16-fold lower, 2.47 µM

substrate: NC(=O)C1=CN([C@@H]2O[C@H](COP(=O)(O)OP(=O)(O)OC[C@H]3O[C@@H](n4cnc5c(N)ncnc54)[C@H](OP(=O)(O)O)[C@@H]3O)[C@@H](O)[C@H]2O)C=CC1; experiment: purified protein; conditions: pH 7.1

B6 gave a Km of 14.4 ± 1.66 µM.

Source: article doi:10.1101/2024.03.08.584095v1
